Patent US20020127539A1, “Assays for identifying receptors having alterations in signaling” (priority 2000, published 2002)
Changes are numbered by the printed parent chain.

Columns and labels:
rat mu opioid receptor [1] = molecular target: T1, rat mu opioid receptor (Rattus norvegicus, UniProt P33535, N150A); assay: SRE-Luc/Gq5i luciferase reporter assay in HEK293 cells; format: cell-based
T1 construct: expressed in transfected cells; host or cells: HEK293
Protocol: (§1) Reagents & Solutions: The cell culture media used in the assays described below was Gibco BRL #12100-046. This media was made according to manufacturer's recipe, pH adjusted to 7.2, filtered (0.22 micron pore), and supplemented with 1% Pen/Strep (Gibco #15140-122; 100% penicillin G 10,000 units/ml, and streptomycin 10,000 μg/ml) and 10% fetal bovine serum. Cell culture media lacking 10% fetal bovine serum was also generated. DNA used in the transfection experiments was purified and quantitated by measuring the absorbance at OD260. A LucLite Luciferase Assay Kit (Packard) was used to quantitate luciferase activity. Transfections were carried out using LipofectAMINE Reagent (Gibco #18324-012).
(§2) Constitutive activity of the Asn150Ala mutant rat mu opioid receptor was assessed using a luciferase assay. The rat mu opioid receptor is a Gαi coupled receptor. Therefore we chose to use the Gq5i reporter system, described in detail above (Broach and Thorner, supra), which switches the signaling pathway from Gαi to Gαq for reliable positive readout. HEK293 cells were transfected with the reporter construct SRE-Luc, an expression vector containing nucleic acid encoding Gq5i (Broach and Thorner, supra), and an expression vector containing nucleic acid encoding either the wild-type or the Asn150Ala mutant rat mu opioid receptor. Basal and ligand-stimulated luciferase activity was measured. The ligand used in this assay was [D-Ala^2-MePhe^4, Gly-ol^5]enkephalin] (DAMGO). As a negative control, HEK293 cells were transfected with pcDNA1 (empty vector DNA), SRE-Luc, and the expression vector containing nucleic acid encoding Gq5i (Broach and Thorner, supra).
(§3) The luciferase assay was carried out as follows. On day 1, HEK293 cells in a T75 flask were washed with 15 ml serum-free media (or PBS), trypsinized with 5 ml 0.05% trypsin-EDTA (Gibco #25300-062), incubated at 37° C. for 3 minutes at which time 6-7 ml complete HEK293 media (Gibco #12100-046) and 10% Fetal Bovine Serum (Intergen #1050-90) were added. Thereafter, cells were collected in 50 ml centrifuge tubes, pelleted at 800-900 rpm (RCF ˜275), and resuspend in 20 ml complete media. The cells were counted using a haemocytometer and diluted to 85,000 cells/ml in complete media. Using a repeat pipettor or cell plater, 100 μl of cells were added to each well of a Primaria 96-well plate (Falcon #353872). Cells were then incubated at 37° C., 5% CO2 until use at 48 hours.
(§4) On day 3, cells were transfected using LipofectAMINE™ according to the manufacturer's protocol (Gibco #18324-012, Rockville, Md.).
(§5) On day 4, cells were stimulated as follows. Ligands for the receptor, either DAMGO or a non-peptide ligand (e.g., naltrexene or nalonin), were diluted to a desired concentration in serum-free media containing 0.15 mM PMSF (or other protease inhibitor(s)). The transfection media was then completely removed from cells and 50-100 μl stimulation media (i.e., media containing candidate ligands or the corresponding ligand free solvent) was added to each well. The cells were incubated for the desired time (standard is overnight) at 37° C., 5% CO2, although the optimal stimulation time may vary depending on the particular receptor used. The optimal incubation time may be determined systematically by testing a range of incubation times and determining which one yields the highest level of stimulation. For concomitant assessment of two ligands (e.g., ligand induced inhibition of forskolin stimulated CRE activity) each stimulus is prepared at two times the desired final concentration and mixed in equal volumes prior to addition to cells.
(§6) On day 5, an assay for luciferase expression was carried out according to the manufacturer's instructions (Packard, Meridin, Conn.)

rat mu opioid receptor [2] = assay: as above; format: cell-based; settings: HEK293, SRE + Gq5i; for Average Ligand Stimulated Activity (Light Emission): ligand DAMGO; for Average Basal Activity (Light Emission): no ligand
Protocol: as §1, §2, §3, §4, §5, §6

rat mu opioid receptor [3] = molecular target: T1, rat mu opioid receptor; assay: CRE-Luc luciferase reporter assay with forskolin stimulation; format: cell-based; settings: 0.5 μM forskolin; a decrease means more Gαi signaling
Text: Similarly, a constitutively active rat mu opioid receptor was identified using a reporter construct sensitive to Gαi coupling (see FIG. 3). The response element employed in this assay was the cAMP-response element (CRE), which is sensitive to Gαi mediated changes in intracellular levels of cAMP. Signaling through the rat mu opioid receptor via Gαi inhibits adenylate cyclase, causing a decrease in intracellular cAMP. Therefore, an increase in rat mu opioid receptor signaling induces a decrease in CRE mediated reporter activity.
Prior to the present invention, Gαi-mediated decreases in intracellular cAMP were measured by (1) stimulating cells with forskolin, which causes receptor-independent activation of adenylate cyclase and generates an intracellular pool of cAMP; (2) stimulating the cells with ligand; and (3) measuring the ligand-induced, receptor-dependent Gαi-mediated decrease in the intracellular cAMP pool (e.g., using a radioimmunoassay (e.g., New England Nuclear, Boston, Mass.)). […] The basal (and ligand-induced) level of receptor activity was then measured using a standard luciferase assay (see FIG. 3). Coexpression of the receptor of interest with a luciferase reporter gene construct allows one to measure light emission as a readout for basal signaling.

CCK-BR [4] = molecular target: T2, CCK-BR (Homo sapiens, UniProt P32239, L325E); design: expressed in transfected cells; host or cells: COS-7; settings: COS-7, absence of agonist; cited from earlier work
T2 sequence (P32239 1-447 L325E): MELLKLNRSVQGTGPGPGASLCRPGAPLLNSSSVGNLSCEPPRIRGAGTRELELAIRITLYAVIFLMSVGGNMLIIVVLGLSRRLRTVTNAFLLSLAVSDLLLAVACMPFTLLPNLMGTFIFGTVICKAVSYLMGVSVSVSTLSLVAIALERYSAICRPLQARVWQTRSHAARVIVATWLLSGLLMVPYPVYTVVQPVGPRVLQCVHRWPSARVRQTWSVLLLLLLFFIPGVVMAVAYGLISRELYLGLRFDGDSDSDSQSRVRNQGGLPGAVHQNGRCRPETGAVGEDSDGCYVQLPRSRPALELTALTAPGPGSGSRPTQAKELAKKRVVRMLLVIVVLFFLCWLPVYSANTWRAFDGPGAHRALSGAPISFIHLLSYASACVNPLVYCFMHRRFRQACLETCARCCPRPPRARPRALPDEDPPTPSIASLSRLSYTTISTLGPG

CCK-BR [5] = molecular target: T2, CCK-BR; assay: SMS-Luc luciferase reporter assay in HEK293 cells; format: cell-based; design: expressed in transfected cells; host or cells: HEK293; settings: FIG. 2
Text: HEK293 cells were transfected (as described above) with SMS-Luc and an expression vector encoding any one of pcDNA1, wild-type CCK-BR, or Leu325Glu CCK-BR.

B1: Asn150Ala rat mu opioid receptor: rat mu opioid receptor with Asn to Ala point mutation at position 150 of SEQ ID NO: 1 (protein, UniProt P33535 1-398, looked up, variant N150A)
Mu-type opioid receptor: MDSSTGPGNTSDCSDPLAQASCSPAPGSWLNLSHVDGNQSDPCGLNRTGLGGNDSLCPQTGSPSMVTAITIMALYSIVCVVGLFGNFLVMYVIVRYTKMKTATNIYIFNLALADALATSTLPFQSVNYLMGTWPFGTILCKIVISIDYYAMFTSIFTLCTMSVDRYIAVCHPVKALDFRTPRNAKIVNVCNWILSSAIGLPVMFMATTKYRQGSIDCTLTFSHPTWYWENLLKICVFIFAFIMPVLIITVCYGLMILRLKSVRMLSGSKEKDRNLRRITRMVLVVVAVFIVCWTPIHIYVIIKALITIPETTFQTVSWHFCIALGYTNSCLNPVLYAFLDENFKRCFREFCIPTSSTIEQQNSTRVRQNTREHPSTANTVDRTNHQLENLEAETAPLP
Which “basal activity relative to the maximal level of ligand-stimulated second messenger signaling” value (rat mu opioid receptor [1]) does the source give for B1 here?
The value was “exceeded 50%”.

What about the “stimulation of basal level activity (increase in basal activity vs wild-type)” value (rat mu opioid receptor [1]; HEK293, SRE + Gq5i, listed as Asn150Ala mutant mu opioid receptor) of the same molecule?
The value was “approximately 6.5 fold”.

What about the “Average Ligand Stimulated Activity (Light Emission)” value (rat mu opioid receptor [2]) of the same molecule?
Its value is 86,996.

And the “Average Basal Activity (Light Emission)” value (rat mu opioid receptor [2])?
Its value is “*56,498”.

And the “basal CRE-Luc reporter activity compared to wild-type receptor” value (rat mu opioid receptor [3])?
The value was “reduction in basal activity”.

B2: wild-type rat mu opioid receptor: wild-type rat mu opioid receptor expressed from an expression vector in HEK293 cells (protein, UniProt P33535 1-398, looked up)
Mu-type opioid receptor: B1 Mu-type opioid receptor with A150N
With B2 as the molecule, how does the “Average Ligand Stimulated Activity (Light Emission)” value (rat mu opioid receptor [2]) read?
The value was 87,461.

What about the “Average Basal Activity (Light Emission)” value (rat mu opioid receptor [2]) of the same molecule?
Its value is 8,436.

B3: Leu325Glu CCK-BR mutant: human CCK-BR with point mutation Leu325Glu, constitutively active (protein, UniProt P32239 1-447, looked up, variant L325E)
Gastrin/cholecystokinin type …: T2 sequence (P32239 1-447 L325E)
What does the source list for B3?
constitutive production of inositol phosphates (CCK-BR [4]): levels exceeding wild-type CCK-BR; basal level activity compared to wild-type CCK-BR (CCK-BR [5]): increased basal level activity
